Patent US20260193375A1 (NORMUNITY, published 2026)
Numbering of substitutions follows the chain as printed.

T1: recombinant human LY6K (Wuxi) (human, UniProt Q17RY6 18-138)
T1 construct: Limits of the construct not clearly stated; also called Human LY6K (Wuxi LY^KGLY138(1-38TR)_8His)
T1 sequence: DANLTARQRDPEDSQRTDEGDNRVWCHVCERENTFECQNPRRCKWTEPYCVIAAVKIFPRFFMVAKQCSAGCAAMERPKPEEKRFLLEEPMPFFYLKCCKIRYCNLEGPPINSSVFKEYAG

T2: hLY6K-mFc (human, UniProt Q17RY6 18-138)
T2 construct: not shown: mFc
T2 sequence: T1 sequence

T3: hLY6K-his (human, UniProt Q17RY6 18-138, limits assumed)
T3 construct: not shown: his tag
T3 sequence: T1 sequence

T4: cell-surface anchored LY6K (human, UniProt Q17RY6 18-138)
T4 construct: the cell is named under assay; also called LY6K on target cells
T4 sequence: T1 sequence

T5: human LY6E (R&D Systems) (human, UniProt Q16553 21-101, limits assumed)
T5 construct: also called hLY6E
T5 sequence (looked up): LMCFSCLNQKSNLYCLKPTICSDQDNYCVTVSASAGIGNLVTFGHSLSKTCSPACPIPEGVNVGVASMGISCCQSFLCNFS

T6: Human LY6K (R&D Systems) (human, UniProt Q17RY6 18-138, limits assumed)
T6 construct: Bought from R&D Systems, coated on ELISA plates; also called hLY6K
T6 sequence: T1 sequence

T7: Ly6D
T7 chain: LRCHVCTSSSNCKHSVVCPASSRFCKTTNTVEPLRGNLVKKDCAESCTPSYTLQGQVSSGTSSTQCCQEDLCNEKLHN

T8: Ly6H
T8 chain: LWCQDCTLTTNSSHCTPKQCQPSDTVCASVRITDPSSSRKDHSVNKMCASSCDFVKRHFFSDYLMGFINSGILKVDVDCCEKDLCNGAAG

B1: anti-LY6K antibody 3035 (antibody, V domains shown)
VH: EVQLVESGGGLVQPGGSLKLSCAASGFTFSDSTLHWVRQASGKGLEWVGRIRSKANSYATAYAASVKGRFTISRDDSKNTAYLQMNSLKTEDTAVYYCHNWSYGYWGQGTLVTVSS
VL: QTVVTQEPSLTVSPGGTVTLTCASSTGAVTSYYYPNWFQQKPGQAPRTVIYSTTNKHSWTPARFSGSLLGGKAALTLSGVLPEDEADYYCLLFYGGAYVFGTGTKVTVL
B2: anti-LY6K antibody 2660 (antibody, V domains shown)
VH: EVQLVESGGGLVKPGGSLRLSCAASGFTFSDVWMSWVRQAPGKGLEWVGRIKSKTDGGRIDYAAPVKGRFTISRDDSKNTLYLQMNSLKTEDTAVYYCTTVPYSDYWGQGTLVTVSS
VL: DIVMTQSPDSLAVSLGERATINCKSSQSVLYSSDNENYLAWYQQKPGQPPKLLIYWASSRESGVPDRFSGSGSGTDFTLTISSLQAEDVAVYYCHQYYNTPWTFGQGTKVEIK
B3: anti-LY6K antibody 3074 (antibody, V domains shown)
VH: EVQLVESGGGLVHPGRSLRLSCAASGFTFDDYAMHWVRQAPGKGLEWVSGISWKTNKIDYADSVKGRFTTSRDNAKNSLYLQMNSLRTEDTAFYYCAKDRREMTFDIWGQGTMVTVSS
VL: DIVMTQTPLSSPVTLGQPASISCRSSQSLEHSNGNTYLSWLQQRPGQPPRLLIYKISNRFSGVPDRFSGSGAGTDFTLKISRVEAEDVGIYYCMQATQFPLTFGGGTKVEIK
B4: anti-LY6K antibody 3101 (antibody, V domains shown)
VH: EVQLVESGGGLVQPGRSLRLSCAASGFTFDDYAMHWVRQTPGKGLEWVSGITWKSGNIGYADSVKGRFTISRDNAKNSLYLQMNSLRAEDTALYYCAKDTEAGLDYWGQGTLVTVSS
VL: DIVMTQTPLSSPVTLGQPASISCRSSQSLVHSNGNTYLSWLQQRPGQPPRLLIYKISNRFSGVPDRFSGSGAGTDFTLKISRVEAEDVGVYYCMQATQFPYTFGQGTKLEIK
B5: anti-LY6K antibody 3741 (antibody, V domains shown)
VH: EVQLVESGGGLVKPGGSLRLSCAASGFTFSSYSMNWVRQAPGKGLEWVSSISSSSNYIYYVDSVKGRFTTSRDNAKNSLYLQMNSLRAEDTAVYYCARQEATGNNYYYYYMDVWGKGTTVTVSS
VL: DIQMTQSPSSLSASVGDRVTITCRASQSISNYLNWYQQNLGKAPKVLIYAASSLQSGVPSRFSGSGSGTDFTLTISSLQPEDFATYYCQQTYSTPITFGQGTRLEIK
B6: anti-LY6K antibody 3705 (antibody, V domains shown)
VH: B3 VH with T55N, N56G, T69I, F93L, R101I
VL: B3 VL with T7S, I90V, A96T
B7: anti-LY6K antibody 3075 (antibody, V domains shown)
VH: QVQLVQSGSELKRPGASVKVSCKASGYTFIRYAMNWVRQAPGQGLEWMGWINTNTGNPTYAQGFTGRFVLSVDTSVSTAYLQISSLKVEDTAVYYCGRPGISSFEYWGQGTLVTVSS
VL: DIQMTQSPSSLSASVGDRVAITCRATQDISNYLDWYQQKPGKAPKLLIYDASNLETGVPSRFSGSGSGTDFTFTINSLQPEDIATYYCQQYDNLPLTFGGGTKVEIK
B8: anti-LY6K antibody 3048 (antibody, V domains shown)
VH: B4 VH with T40A, N57T, T100S, E101R, A102T, T111A
VL: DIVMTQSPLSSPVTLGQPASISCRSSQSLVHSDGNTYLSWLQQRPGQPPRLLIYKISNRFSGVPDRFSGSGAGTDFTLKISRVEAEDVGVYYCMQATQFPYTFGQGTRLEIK
B9: anti-LY6K antibody 3481 (antibody, V domains shown)
VH: B4 VH with P14S, T40A, S55D, G56V, N57T, R87G, E101S, A102D
VL: B3 VL with E30V, A85T, T97I, L101Y, G105Q, V109L
B10: anti-LY6K antibody 3785 (antibody, V domains shown)
VH: QVQLQQSGPGLVKPSQTLSLTCAISGDSVSSNSAAWNWIRQSPSRGLEWLGRTYFRSKWNNDYTLSVKNRITINPDTSKNHFSLQLNSVTPEDTAVYYCAGGGYCNRTYCPDVFDIWGQGTMVTVSS
VL: DIQMTQSPSSLSASVGDRVTFTCRSSQSISSYLNWYQQKPGKAPNLLIYVASTLQSGVPSRFSGSGSGTDFTLTISSLQPEDFATYYCQQSYSIPLTFGGGTKVEIK

biological target: T1, recombinant human LY6K (Wuxi); assay: capture ELISA (MSD): antibody coated as capture at 2 µg/mL, recombinant human LY6K titrated, sulfo-tagged polyclonal anti-hLY6K (AF6648) for detection; EC50 is the LY6K concentration

EC50 | Binder
0.168 mg/L | B1
0.0756 mg/L | B2
0.315 mg/L | B3
0.163 mg/L | B4
0.0568 mg/L | B5

biological target: T1, recombinant human LY6K (Wuxi); assay: ELISA, LY6K coated at 2 ug/mL, HRP-labelled mAb titrated

EC50 | Binder
2.86 nM | B1
1.57 nM | B2
16.2 nM | B6
5.2 nM | B3
1.56 nM | B7
2.65 nM | B8
2.08 nM | B9
3.08 nM | B5

biological target: cyLY6K-mFc (cynomolgus monkey); assay: SPR (Carterra LSA), mAb captured on anti-human IgG-Fc, antigen as analyte

Kd | Binder
0.0518 nM | B2
1.39 nM | B10
0.379 nM | B5

biological target: T2, hLY6K-mFc; assay: as above

Kd | Binder
0.00702 nM | B2
0.185 nM | B6
0.164 nM | B3
0.263 nM | B10
0.0264 nM | B4
0.0428 nM | B8
0.0157 nM | B9
0.0505 nM | B5

biological target: T3, hLY6K-his; assay: as above

Kd | Binder
3.59 nM | B2
6.31 nM | B6
3.23 nM | B3
7.48 nM | B10
1.83 nM | B4
4.7 nM | B8
1.19 nM | B9
5.66 nM | B5

biological target: T4, cell-surface anchored LY6K; assay: flow cytometry on target cells, MFI fitted in Prism; flow cytometry, live target cells, 4 degrees C

EC50 | Binder
0.805 nM | B7

biological target: T9, cynomolgus monkey LY6K (R&D Systems) (cynomolgus monkey); assay: ELISA, coated antigen, IgG1 at 10 ug/ml
T9 construct: also called cyLY6K

% of maximum of commercial anti-LY6K mAb on human LY6K | Binder
71.4% | B1
106% | B2
1.1% | B6
-0.2% | B3
57.2% | B10
16.7% | B7
3% | B4
0.1% | B8
0.2% | B9
66.4% | B5

biological target: T10, rat LY6K (R&D Systems) (rat); assay: ELISA, coated antigen, IgG1 at 10 ug/ml
T10 construct: also called rLY6K

% of maximum of commercial anti-LY6K mAb on human LY6K | Binder
1% | B1
-0.1% | B2
0% | B6
-1.2% | B3
2.5% | B10
0.7% | B7
0.6% | B4
1.5% | B8
0.9% | B9
-1.6% | B5

biological target: T5, human LY6E (R&D Systems); assay: ELISA, coated antigen, IgG1 at 10 ug/ml

% of maximum of commercial anti-LY6K mAb on human LY6K | Binder
5.6% | B1
3.1% | B2
7.8% | B6
3.4% | B3
4.5% | B10
1.6% | B7
2.4% | B4
2.5% | B8
2.7% | B9
3.1% | B5

biological target: T6, Human LY6K (R&D Systems); assay: ELISA, coated antigen, IgG1 at 10 ug/ml

% of maximum of commercial anti-LY6K mAb on human LY6K | Binder
65.2% | B1
95.1% | B2
102% | B6
89.2% | B3
43.7% | B10
58.3% | B7
94.9% | B4
81.2% | B8
99.4% | B9
67.6% | B5

biological target: T4, cell-surface anchored LY6K; assay: flow cytometry on target cells, MFI fitted in Prism

EC50 | Binder
0.364 nM | B2
58.1 nM | B6
164 nM | B3
3.33 nM | B8
2.84 nM | B9

Biological target: T7, Ly6D
Assay: ELISA, antigen coated on the plate, antibody as human IgG1, anti-human F(ab)2 HRPO

binding result | Binder
no binding (tested: 10 µg/ml) | B1
no binding (tested: 10 µg/ml) | B2
no binding (tested: 10 µg/ml) | B3
no binding (tested: 10 µg/ml) | B10
no binding (tested: 10 µg/ml) | B5

biological target: T5, human LY6E (R&D Systems); assay: as above

binding result | Binder
no binding (tested: 10 µg/ml) | B1
no binding (tested: 10 µg/ml) | B2
no binding (tested: 10 µg/ml) | B3
no binding (tested: 10 µg/ml) | B10
no binding (tested: 10 µg/ml) | B5

Biological target: T8, Ly6H
Assay: as above

binding result | Binder
no binding (tested: 10 µg/ml) | B1
no binding (tested: 10 µg/ml) | B2
no binding (tested: 10 µg/ml) | B3
no binding (tested: 10 µg/ml) | B10
no binding (tested: 10 µg/ml) | B5
